The text below walks through data of patent US20210332120A1.

In this test the target is human IL-17A (human) (UniProt Q16552). Kind of test: cell-based or functional assay.
Sequence of human IL-17A (human) (Q16552 20-155 limits assumed): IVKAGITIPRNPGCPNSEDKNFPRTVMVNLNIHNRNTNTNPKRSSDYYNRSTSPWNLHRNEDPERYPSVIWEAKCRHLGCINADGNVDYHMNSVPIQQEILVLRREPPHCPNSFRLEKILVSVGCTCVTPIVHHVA

For the substance “BCD-085 anti-IL-17A monospecific antibody (BIOCAD)”, the IC50, IL-17A-dependent IL-6 production, HT1080 cells is 9.2 ng/mL and the IC50, dual IL-17A/TNFα-dependent IL-6 production, HT1080 cells was 0.025 nM.
